Laboratory results: patent US20220204643A1 (published 2022)
Each block holds one binder with its values, some of them ahead of it.

How the values were obtained:
[1] = target: T1, GRB10 interacting GYF protein 1, transcript variant X10 (human, UniProt O75420 1-1035)
T1 construct: also called GIGYF1
T1 sequence: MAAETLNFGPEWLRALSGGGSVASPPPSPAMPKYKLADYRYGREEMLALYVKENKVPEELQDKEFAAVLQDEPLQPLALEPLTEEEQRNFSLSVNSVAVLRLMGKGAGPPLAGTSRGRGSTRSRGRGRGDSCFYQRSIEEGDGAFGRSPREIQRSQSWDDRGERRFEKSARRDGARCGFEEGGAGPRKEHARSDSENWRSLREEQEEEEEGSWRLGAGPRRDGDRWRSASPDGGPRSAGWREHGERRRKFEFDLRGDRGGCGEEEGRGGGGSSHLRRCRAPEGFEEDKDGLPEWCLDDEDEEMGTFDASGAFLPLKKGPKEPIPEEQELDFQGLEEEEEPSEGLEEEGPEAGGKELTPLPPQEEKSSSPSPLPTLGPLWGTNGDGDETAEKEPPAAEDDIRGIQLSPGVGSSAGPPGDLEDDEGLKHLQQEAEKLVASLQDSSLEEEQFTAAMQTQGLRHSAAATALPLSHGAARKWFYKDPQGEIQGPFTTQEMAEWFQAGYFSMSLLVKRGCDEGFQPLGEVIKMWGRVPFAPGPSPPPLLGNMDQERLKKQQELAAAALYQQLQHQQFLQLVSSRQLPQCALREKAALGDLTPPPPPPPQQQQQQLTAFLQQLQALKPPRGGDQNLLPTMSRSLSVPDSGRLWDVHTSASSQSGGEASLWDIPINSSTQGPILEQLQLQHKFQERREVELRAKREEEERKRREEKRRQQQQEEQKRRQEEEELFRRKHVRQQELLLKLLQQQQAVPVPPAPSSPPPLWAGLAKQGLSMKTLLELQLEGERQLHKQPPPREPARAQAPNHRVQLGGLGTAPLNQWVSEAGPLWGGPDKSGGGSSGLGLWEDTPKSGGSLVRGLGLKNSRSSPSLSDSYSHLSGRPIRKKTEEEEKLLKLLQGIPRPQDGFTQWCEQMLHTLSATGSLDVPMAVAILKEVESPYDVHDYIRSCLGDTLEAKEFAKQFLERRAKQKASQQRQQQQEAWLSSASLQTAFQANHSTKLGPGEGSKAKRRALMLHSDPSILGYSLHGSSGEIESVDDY

[2] = target: T2, Ankyrin repeat domain 20 family member a5, pseudogene (human, UniProt A0PJZ0 1-165)
T2 construct: also called ANKRD20A5P

[3] = target: T3, Kirre like nephrin family adhesion molecule 1 (human, UniProt Q96J84 17-757, limits assumed)
T3 sequence: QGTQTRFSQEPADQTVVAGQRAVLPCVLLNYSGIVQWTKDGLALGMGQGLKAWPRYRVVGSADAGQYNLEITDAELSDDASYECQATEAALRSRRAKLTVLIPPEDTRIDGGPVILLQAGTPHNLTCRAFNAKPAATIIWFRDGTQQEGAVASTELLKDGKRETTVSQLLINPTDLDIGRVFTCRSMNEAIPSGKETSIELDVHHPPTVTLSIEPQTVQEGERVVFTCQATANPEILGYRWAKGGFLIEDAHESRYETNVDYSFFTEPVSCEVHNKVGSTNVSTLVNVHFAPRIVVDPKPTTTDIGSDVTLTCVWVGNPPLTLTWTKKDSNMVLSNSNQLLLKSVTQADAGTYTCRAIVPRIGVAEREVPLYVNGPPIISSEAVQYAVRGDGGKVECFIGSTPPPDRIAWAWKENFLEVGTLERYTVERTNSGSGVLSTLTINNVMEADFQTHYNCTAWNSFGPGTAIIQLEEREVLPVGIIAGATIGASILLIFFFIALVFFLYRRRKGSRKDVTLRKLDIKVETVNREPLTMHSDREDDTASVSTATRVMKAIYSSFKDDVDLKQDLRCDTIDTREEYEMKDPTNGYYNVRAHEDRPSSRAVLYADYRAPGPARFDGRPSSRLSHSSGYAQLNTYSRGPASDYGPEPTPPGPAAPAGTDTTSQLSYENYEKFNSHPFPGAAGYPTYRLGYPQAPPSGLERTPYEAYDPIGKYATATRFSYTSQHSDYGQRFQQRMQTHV

[4] = target: T4, neural retina leucine zipper, transcript variant X4 (human, UniProt P54845 1-237)
T4 construct: also called NRL

[5] = target: T5, coiled-coil domain containing 74B, transcript variant 2 (human, UniProt Q96LY2 1-380)
T5 construct: also called CCDC74B

[6] = target: T6, HSPA (Hsp70) binding protein 1, transcript variant 2 (human, UniProt Q9NZL4 1-359)
T6 construct: also called HSPBP1
T6 sequence: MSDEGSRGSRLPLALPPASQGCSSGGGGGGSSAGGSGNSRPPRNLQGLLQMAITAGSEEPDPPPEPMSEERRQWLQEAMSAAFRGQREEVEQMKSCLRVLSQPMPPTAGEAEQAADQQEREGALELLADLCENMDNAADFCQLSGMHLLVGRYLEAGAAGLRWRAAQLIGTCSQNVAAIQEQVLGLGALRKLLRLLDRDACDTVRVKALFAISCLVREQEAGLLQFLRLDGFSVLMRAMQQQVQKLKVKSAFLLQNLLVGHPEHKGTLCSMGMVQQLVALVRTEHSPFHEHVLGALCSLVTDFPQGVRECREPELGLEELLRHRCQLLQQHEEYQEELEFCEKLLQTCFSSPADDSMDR

[7] = target: T7, heat shock protein family A (Hsp70) member 2 (human, UniProt P54652 1-639)
T7 construct: also called HSPA2

[8] = target: T8, BCL2 associated athanogene 2 (human, UniProt O95816 2-211)
T8 construct: also called BAG2

[9] = target: T9, killer cell lectin like receptor C1, transcript variant 3 (human, UniProt P26715 1-233)
T9 construct: also called KLRC1

[10] = target: T10, calcium and integrin binding 1, transcript variant b (human, UniProt Q99828 2-191)
T10 construct: also called CIB1
T10 sequence: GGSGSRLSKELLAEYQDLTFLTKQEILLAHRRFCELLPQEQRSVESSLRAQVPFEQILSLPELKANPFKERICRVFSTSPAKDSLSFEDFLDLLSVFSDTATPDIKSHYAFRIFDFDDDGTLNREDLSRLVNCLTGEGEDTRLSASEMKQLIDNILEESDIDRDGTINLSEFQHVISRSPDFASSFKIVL

[11] = target: T11, C-X-C motif chemokine receptor 4, transcript variant 2 (human, UniProt P61073 1-352)
T11 construct: also called CXCR4

[12] = target: T12, Long intergenic non-protein coding rna 242 (human, UniProt Q5T6M2 1-205)
T12 construct: also called LINC00242
T12 chain: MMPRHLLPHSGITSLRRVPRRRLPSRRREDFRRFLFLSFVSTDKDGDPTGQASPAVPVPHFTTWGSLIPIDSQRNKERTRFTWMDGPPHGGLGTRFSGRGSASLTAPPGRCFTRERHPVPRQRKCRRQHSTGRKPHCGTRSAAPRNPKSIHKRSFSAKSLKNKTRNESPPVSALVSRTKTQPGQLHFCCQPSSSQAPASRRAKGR

[13] = target: T13, Egf like and emi domain containing 1, pseudogene (human, UniProt Q0D2K5 1-195); experiment: protein array
T13 construct: on protein array; also called EGFEM1P
T13 sequence: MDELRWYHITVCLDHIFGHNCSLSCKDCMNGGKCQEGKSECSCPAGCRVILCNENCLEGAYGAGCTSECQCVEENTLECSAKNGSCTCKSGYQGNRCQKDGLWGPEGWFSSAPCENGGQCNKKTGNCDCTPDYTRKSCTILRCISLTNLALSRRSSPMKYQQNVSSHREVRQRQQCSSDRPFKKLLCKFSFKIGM

T7 sequence (P54652 whole entry): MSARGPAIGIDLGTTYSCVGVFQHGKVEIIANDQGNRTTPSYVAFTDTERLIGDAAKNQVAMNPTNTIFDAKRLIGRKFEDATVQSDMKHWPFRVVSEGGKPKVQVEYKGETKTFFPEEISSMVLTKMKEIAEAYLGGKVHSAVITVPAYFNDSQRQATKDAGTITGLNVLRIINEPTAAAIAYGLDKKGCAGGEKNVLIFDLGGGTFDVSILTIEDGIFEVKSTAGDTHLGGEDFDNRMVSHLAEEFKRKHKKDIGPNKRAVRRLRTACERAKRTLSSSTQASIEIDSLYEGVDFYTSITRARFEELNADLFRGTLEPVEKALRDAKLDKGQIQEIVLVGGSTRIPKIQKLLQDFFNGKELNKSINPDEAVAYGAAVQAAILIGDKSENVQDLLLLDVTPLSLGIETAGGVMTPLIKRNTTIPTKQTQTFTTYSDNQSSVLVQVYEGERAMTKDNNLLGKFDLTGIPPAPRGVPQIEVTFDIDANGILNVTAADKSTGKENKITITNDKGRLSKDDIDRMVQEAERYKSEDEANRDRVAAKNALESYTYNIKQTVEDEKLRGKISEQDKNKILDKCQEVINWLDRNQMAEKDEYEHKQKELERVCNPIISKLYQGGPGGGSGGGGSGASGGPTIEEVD
T5 sequence (Q96LY2 other isoform, or with tags, fused parts or gaps mutant limits assumed): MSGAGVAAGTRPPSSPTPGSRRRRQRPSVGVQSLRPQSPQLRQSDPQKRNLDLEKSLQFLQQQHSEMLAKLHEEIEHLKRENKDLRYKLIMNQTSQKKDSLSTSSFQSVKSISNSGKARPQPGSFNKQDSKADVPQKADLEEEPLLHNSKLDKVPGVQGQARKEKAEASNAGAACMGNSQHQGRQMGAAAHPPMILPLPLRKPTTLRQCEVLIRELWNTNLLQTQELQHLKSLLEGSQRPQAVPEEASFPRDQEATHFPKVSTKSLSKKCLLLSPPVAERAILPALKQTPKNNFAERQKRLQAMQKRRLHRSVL
T2 sequence (A0PJZ0 whole entry, the tested form may be a part): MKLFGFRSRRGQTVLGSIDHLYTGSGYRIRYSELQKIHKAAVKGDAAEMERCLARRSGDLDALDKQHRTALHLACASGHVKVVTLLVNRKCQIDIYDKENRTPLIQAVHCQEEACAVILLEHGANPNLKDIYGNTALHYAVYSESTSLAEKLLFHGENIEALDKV
T8 sequence (O95816 2-211 limits assumed): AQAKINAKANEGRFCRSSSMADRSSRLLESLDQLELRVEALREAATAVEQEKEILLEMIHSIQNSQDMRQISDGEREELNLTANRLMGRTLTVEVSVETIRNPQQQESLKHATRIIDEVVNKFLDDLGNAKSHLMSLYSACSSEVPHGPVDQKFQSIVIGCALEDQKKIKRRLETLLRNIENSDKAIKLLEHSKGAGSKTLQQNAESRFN
T9 sequence (P26715 other isoform, or with tags, fused parts or gaps mutant limits assumed): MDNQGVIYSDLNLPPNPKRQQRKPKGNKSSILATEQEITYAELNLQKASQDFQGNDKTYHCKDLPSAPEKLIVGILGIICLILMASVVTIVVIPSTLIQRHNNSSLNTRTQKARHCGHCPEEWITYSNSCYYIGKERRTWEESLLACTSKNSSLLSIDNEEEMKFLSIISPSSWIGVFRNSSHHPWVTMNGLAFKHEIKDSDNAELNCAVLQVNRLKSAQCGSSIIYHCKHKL
T4 sequence (P54845 whole entry, change not shown): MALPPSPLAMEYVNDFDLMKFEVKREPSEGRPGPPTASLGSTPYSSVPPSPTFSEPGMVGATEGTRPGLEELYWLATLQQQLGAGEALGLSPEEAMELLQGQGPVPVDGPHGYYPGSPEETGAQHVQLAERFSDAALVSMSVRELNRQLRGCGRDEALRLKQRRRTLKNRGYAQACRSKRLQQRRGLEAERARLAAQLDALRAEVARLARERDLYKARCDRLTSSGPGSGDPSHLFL
T11 sequence (P61073 whole entry, change not shown): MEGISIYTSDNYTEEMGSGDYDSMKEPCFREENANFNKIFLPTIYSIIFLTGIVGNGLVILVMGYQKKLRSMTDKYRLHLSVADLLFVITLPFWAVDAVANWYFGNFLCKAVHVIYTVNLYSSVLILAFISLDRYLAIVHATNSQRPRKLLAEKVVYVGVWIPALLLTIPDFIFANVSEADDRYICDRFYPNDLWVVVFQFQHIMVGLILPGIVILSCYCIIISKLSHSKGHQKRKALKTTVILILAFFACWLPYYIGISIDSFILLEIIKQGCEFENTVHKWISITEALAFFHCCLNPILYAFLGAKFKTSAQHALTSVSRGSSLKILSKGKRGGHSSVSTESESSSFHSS

B1: TPRO1002 (antibody, V domains shown)
VH: EVQLVESGGGVIKPGGSLKLSCEGSGFTLDDYVMHWVRQAPGKGLEWISSISGDGTRTYYADSVKGRFTISRNNGKNSLYLQMDSLRREDTALYYCAKDARLAYYGMDVWGQGTTVTVSS
VL: QSALTQPASVSGSPGQSITISCTGTSSDIGGYDLVSWYQHHPGKAPKLVISEGSKRPSGVSNRFFGSKSGNTASLTISGLQAEDEADYYCCSFTGTSTFVFGTGTKVTVL
binding result [1]: binds
binding result [2]: binds
binding result [3]: binds

B2: TSAR1001 (antibody, V domains shown)
VH: EVQLVESGGGMVQPGESLRLSCAASGFDFTSYWMAWVRQAPGKGLEWVANMNADGSEKHYVDSVKGRFSISRDNAKKLLFLQMNSLTVDDTGVYYCARDEGRREGAWGQGTQVIVSA
VL: EIVLTQSPATLSFSPGDRATLSCRASQNINRFLAWYQQKPGQTPRLLIYDASTRATGIPARFSGSGSGTDFSLIISSLEPEDFAIYYCQQRNNWPITFGPGTKVDVK
binding result [4]: binds

B3: TSAR1003 (antibody, V domains shown)
VH: QLQLQESGPGLVKPSETLSLTCTVSGVSIGTSSYYWGWIRQPPAKGLEWIGSIYYSGSTYYNPSLKNRVTISVDTSKNHFSLKLSSVTAADTAVYYCARHRTGQYYYNSWGQGTLVTVSS
VL: SSELTQDPAVSVALGQTVRITCQGDSLRTDYATWYQQKPGQAPILVFYGEDNRPSGIPDRFSGSSSGNTASLTITGAQAEDEADYYCNSRDSSGHHWVFGGGTKLTVL
binding result [5]: binds

B5: TREC1003 (antibody, V domains shown)
VH: QVQLVQSGSEVKKPGASVRLACKTSGYTFSNYGVSWVRQGPGRGLEWLGWISGYNGRTHSADKFRDRVTLTTDTSTTTVYVDLKNLTSDDTAVYYCARVGTSHWYSDSWGQGTLVTVSS
VL: QSVLTQPPSVSGAPGQRVTISCAGSYSNIGAGYDVHWYRQLPGTAPTLLIYSNNNRPSGVSDRFSGSKSGTSASLAITGLQAEDEADYYCQSFDSSLSRSVFGTGTKVTVL
binding result [9]: binds

More lines, now with the values ahead:

binding result [6]: binds
binding result [7]: binds
binding result [8]: binds
B4: TSAR1005 (antibody, V domains shown)
VH: QVQLVESGGGVVQPGRSLRLSCVASGFTFSNYAMHWVRQAPGKGLEWVAVIWYDGSNEYYRDSVEGRFTISRDSSKNTLYLLVNSLRAEDTAVYYCARGNGPKSGKYSDFDYWGQGTLVTVSS
VL: DVVMTQSPLSLPVTLGQAASISCRSSQSLVYSDGNTYLNWFQQRPGQSPRRLIYKVSNRESGVPDRFSGSGSGTDFTLQISRVEAEDVGIYYCMQGAHWPPITFGQGTRLEIKR

binding result [10]: binds
B6: TSTO1001 (antibody, V domains shown)
VH: VVQLLESGGGLVHPGGSLRISCAASEFTFSAYAMTWVRQAPGKGLEWVSAISGSGGRTYYADSLKGRFTISRDNSKHTLYLLMNSLRVEDTAVYYCASRYRSPSGAFDIWGQGTLVTVSS
VL: EIVMTQSPATLSVSQGERATLSCRASQSVGSDLAWYQQKPGQAPRLLIYDASARATDIPARFSGSGSETEFTLTISSLQSEDFAVYYCQHYSDWRALTFGGGTKVEIKR

binding result [11]: binds
binding result [12]: binds
B7: TSAR1006 (antibody, V domains shown)
VH: QVQLVQSGTEVKKPGASVKVSCKASGYRFTSNGISWVRQAPGQGLQWMGWISTDSGNTNYAQSFQGRVTLTRDTSTNTAYLELRRLRSEDTAVYYCARDKSWYFDYWGQGTLVSVSS
VL: SYELTQPPSVSVSPGQTARITCSGDALPKKYVFWYQQRSGQAPVLVIYEDSKRPSGIPDRFSGSSSGTLATLTISGAQVEDEADYYCYSTDTIGNWVFGGGTRLTVL

binding result [13]: binds
B8: TBRE1036 (antibody, V domains shown)
VH: QVQLVESGGGVVQPGRSLRLSCAASGFTFSSYAMHWVRQAPGKGLEWVAVISYDGSNKYYADSLKGRFTISRDNSKDTLYLQVNSLRPEDTAVYYCARVNIAAAGTLDYWGQGTLVTVSS
VL: EIVLTQSPGTLSLSPGERATLSCRASQSVSSRYLAWYQQKPGQAPRLLIHGASSRATGIPDRFSGSGSGTDFTLTISRLEPEDFAVYYCQQYGSAWTFGQGTKVEIKR
notes: VH/VL only
